# Assay results as given in paper PMC7512442.
# T1: RBM22 (pre-mRNA-splicing factor RBM22) (Homo sapiens, UniProt Q9NW64 1-420)
# T1 sequence: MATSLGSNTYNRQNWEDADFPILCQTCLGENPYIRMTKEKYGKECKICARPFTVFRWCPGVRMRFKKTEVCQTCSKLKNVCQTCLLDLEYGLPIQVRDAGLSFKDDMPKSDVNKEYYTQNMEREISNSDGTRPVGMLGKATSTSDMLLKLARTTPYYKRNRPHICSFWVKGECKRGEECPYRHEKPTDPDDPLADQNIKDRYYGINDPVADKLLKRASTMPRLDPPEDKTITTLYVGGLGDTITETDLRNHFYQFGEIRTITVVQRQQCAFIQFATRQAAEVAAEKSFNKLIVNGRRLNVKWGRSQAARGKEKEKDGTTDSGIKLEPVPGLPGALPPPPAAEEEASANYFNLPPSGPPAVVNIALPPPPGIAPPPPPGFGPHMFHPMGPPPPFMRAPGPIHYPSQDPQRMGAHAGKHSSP
# Biological target: T1, RBM22 (pre-mRNA-splicing factor RBM22)
# Experiment: EMSA
binder,measurement,value
GGGGAUCCACAUGGUUCUUGCCUUUU (ssRNA) [human U5 snRNA fragment (nonspecific control)],binding result,no binding
